Measurements reported in publication PMC10085699.

Legend:
Experiment in all cases: EMSA
[1] = biological target: T1, Sen1-HD (UniProt Q00416 1095-1904)
T1 sequence: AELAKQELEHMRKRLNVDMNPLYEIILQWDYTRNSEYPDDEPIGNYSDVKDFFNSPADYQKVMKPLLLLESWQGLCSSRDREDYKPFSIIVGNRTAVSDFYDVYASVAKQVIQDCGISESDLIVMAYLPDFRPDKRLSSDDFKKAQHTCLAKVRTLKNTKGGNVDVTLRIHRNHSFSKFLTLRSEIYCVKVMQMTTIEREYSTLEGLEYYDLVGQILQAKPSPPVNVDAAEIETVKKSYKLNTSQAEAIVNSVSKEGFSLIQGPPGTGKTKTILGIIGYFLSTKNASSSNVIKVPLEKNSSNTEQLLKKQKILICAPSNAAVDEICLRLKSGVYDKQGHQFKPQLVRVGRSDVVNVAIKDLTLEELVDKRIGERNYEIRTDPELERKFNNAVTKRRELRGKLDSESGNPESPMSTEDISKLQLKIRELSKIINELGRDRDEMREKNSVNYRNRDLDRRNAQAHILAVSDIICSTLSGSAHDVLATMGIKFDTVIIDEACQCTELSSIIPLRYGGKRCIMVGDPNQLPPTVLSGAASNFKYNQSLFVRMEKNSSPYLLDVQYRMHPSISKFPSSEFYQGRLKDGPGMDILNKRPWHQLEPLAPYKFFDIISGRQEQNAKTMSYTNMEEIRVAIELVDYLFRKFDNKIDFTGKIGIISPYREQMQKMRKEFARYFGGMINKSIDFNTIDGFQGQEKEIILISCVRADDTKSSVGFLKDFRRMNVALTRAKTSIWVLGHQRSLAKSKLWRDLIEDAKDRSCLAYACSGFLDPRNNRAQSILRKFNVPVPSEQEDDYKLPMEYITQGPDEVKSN

[2] = biological target: T2, SETX-HD-R/H (Homo sapiens, UniProt Q7Z333 1674-2677, R2136H)
T2 sequence: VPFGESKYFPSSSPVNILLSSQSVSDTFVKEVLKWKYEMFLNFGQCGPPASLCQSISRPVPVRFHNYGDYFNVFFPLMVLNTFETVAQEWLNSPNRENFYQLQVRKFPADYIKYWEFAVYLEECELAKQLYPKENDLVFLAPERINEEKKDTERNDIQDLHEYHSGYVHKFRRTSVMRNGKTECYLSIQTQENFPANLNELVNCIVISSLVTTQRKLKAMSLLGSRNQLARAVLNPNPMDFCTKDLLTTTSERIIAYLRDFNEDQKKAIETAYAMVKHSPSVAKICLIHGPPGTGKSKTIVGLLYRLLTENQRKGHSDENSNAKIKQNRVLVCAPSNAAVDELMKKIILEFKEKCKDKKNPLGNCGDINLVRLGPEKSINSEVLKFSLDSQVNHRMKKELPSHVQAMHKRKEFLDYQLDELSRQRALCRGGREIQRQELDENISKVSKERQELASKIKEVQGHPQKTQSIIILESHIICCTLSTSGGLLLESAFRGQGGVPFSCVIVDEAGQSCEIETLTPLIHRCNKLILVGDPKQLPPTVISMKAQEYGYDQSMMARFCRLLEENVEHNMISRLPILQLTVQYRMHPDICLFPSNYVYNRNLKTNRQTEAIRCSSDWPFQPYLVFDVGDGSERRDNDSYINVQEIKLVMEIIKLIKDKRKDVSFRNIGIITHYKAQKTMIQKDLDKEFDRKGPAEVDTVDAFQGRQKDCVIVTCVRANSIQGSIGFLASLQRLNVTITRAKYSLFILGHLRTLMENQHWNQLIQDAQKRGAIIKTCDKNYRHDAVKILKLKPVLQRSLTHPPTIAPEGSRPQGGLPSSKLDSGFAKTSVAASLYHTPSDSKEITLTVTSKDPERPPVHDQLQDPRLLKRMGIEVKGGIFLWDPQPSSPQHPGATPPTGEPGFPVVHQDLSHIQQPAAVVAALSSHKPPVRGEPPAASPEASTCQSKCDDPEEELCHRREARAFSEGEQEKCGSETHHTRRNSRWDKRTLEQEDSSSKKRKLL

[3] = biological target: T3, SETX-HD-DE/AA (Homo sapiens, UniProt Q7Z333 1674-2677, D2181A;E2182A)
T3 sequence: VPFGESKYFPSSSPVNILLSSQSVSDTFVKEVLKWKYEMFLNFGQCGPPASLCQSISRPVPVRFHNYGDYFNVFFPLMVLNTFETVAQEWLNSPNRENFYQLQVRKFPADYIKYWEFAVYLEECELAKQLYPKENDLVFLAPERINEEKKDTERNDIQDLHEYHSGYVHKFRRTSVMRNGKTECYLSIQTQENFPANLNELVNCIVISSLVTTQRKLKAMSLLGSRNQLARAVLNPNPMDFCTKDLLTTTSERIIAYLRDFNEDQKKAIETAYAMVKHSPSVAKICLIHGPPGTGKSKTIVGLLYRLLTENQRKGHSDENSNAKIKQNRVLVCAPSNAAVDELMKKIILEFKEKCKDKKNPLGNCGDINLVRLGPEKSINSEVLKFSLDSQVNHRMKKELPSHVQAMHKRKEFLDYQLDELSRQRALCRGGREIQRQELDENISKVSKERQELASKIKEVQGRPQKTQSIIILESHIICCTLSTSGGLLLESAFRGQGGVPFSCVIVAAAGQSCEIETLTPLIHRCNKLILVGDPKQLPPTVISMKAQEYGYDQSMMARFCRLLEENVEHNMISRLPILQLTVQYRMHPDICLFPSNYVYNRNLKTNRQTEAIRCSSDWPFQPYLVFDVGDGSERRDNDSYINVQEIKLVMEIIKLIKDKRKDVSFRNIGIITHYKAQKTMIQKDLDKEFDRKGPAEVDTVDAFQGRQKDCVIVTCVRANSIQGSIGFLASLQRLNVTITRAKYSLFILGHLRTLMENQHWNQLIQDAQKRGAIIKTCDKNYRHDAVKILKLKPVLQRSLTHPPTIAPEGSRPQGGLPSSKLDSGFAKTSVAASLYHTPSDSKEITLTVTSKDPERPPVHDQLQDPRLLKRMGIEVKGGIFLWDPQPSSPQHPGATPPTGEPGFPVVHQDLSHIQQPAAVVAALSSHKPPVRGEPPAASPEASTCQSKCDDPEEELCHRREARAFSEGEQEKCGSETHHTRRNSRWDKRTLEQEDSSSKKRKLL

Measured: binding result

B1: ssDNA pRMS679 (61 nt) (ssDNA)
DNA: TTGTCTTCTCATAAATTTAATCCCCGTACGCTTATACTCCTTTAACTACCCAGTCTTCCCG
binds: all assays above
